Source: patent US20140154256A1 (published 2014)
One block for each binder: values may come before it.

Columns and labels:
[1] = molecular target: T1, recombinant human IL-1α (human, UniProt P01583 113-271); assay: cell-based or functional assay
T1 sequence (looked up): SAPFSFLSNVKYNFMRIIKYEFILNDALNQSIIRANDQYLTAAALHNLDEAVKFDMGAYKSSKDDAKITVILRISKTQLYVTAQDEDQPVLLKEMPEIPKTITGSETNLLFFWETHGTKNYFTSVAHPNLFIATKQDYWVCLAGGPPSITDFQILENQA

[2] = molecular target: T1, recombinant human IL-1α; assay: cell-based or functional assay; remark: listed apart in the source
[3] = molecular target: T2, recombinant human IL-1β (human, UniProt P01584 117-269); assay: SPR (Biacore)
T2 construct: also called rhIL-1β; hIL-1β

[4] = molecular target: T1, recombinant human IL-1α; assay: SPR (Biacore)
[5] = molecular target: T2, recombinant human IL-1β; assay: cell-based or functional assay
[6] = molecular target: T2, recombinant human IL-1β; assay: cell-based or functional assay; remark: listed apart in the source
[7] = molecular target: T3, human IL-18 (human, UniProt Q14116 37-193); assay: SPR (Biacore)
T3 construct: also called hIL-18

[8] = molecular target: T4, human IL-12 (human, UniProt P29459 23-219; P29460 23-328); assay: SPR (Biacore)
T4 construct: also called hIL-12
T4 sequence (looked up) 1: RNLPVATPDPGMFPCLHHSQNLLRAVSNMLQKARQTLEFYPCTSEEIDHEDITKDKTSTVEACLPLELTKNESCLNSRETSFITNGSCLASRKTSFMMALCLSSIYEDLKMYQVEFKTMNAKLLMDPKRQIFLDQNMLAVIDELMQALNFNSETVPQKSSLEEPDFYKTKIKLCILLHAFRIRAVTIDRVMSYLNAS
T4 sequence (looked up) 2: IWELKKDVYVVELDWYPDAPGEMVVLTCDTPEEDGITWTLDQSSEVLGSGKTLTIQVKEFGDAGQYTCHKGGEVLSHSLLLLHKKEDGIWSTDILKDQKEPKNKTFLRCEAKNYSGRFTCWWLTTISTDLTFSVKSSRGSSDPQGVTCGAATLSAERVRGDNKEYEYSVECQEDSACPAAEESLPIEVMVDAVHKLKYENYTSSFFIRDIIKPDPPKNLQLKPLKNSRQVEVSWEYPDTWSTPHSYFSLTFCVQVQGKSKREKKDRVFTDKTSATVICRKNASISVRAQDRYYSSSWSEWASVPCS

[9] = molecular target: T3, human IL-18; assay: cell-based or functional assay
[10] = molecular target: T4, human IL-12; assay: cell-based or functional assay
[11] = molecular target: T5, mouse IL-1α (mouse, UniProt P01582 115-270); assay: cell-based or functional assay
T5 sequence (looked up): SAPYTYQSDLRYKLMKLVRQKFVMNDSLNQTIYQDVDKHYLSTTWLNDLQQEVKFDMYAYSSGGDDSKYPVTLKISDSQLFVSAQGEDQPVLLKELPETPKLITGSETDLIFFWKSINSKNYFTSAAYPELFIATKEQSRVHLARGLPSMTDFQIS

[12] = molecular target: mouse IL-1β (mouse, UniProt P10749 118-269); assay: cell-based or functional assay
Sequence of mouse IL-1β (P10749 118-269 limits assumed): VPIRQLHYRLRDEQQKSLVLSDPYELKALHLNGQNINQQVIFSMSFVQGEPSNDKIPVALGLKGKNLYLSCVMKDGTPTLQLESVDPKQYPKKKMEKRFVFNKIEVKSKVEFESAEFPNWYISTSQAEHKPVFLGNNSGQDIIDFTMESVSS

B1: murine monoclonal antibody 3D12.E3 (anti-hIL-1α) (antibody, V domains shown)
VH: QIQLVQSGPELKKPGETVKISCKASGYTFRNYGMNWVKQAPGKDLKRMAWINTYTGESTYADDFKGRFAFSLETSASTAYLQINNLKNEDTATYFCARGIYYYGSSYAMDYWGQGTSVTVSS
VL: NIQMTQTTSSLSASLGDRVTISCRASQDISNCLNWYQQKPDGTVKLLIYYTSRLHSGVPSRFSGSGSGTDYSLTISNLEQEDIATYFCQQGKTLPYAFGGGTKLEINR
IC50 (M), MRC-5 bioassay (IL-8 production) [1]: 6.7e-10 M

B2: murine monoclonal antibody 18F4.2C8 (anti-hIL-1α) (antibody, V domains shown)
VH: EVQLQQSGAELVKPGASVKLSCTASGLNIKDTYMHWLKQRPEQGLEWIGRIDPANGNAKYDPRFLGKATITADTSSNTAYLQLSSLTSEDTAVYYCARGDGNFHFDYWGQGTTLTVSS
VL: DIVMTQSQRFMSTSVGDRVSVTCKASQNVGTNIAWYQQKPGQSPRALIYSASYRYSGVPDRFTGSGSGTDFTLTISNVQSVDLAEYFCQQYTRYPLTFGGGTKLEIKR
IC50 (M), MRC-5 bioassay (IL-8 production) [1]: 8.9e-11 M

B6: murine monoclonal antibody 13F5.G5 (anti-hIL-1β) (antibody, V domains shown)
VH: QVQLQQSGAELVRPGSSVKISCKASGYAFSSYWMNWVKQRPGQGLEWIGQIYPGDGDTNYNGKFKGKATLTADKSSSTSYMQLSGLTSEDSAMYFCVRFPTGNDYYAMDYWGQGTSVTVSS
VL: NIVLTQSPASLAVSLGQRATISCRASESVDSYGNSYMHWYQQKPGQPPKLLIYLASNLESGVPARFSGSGSRTDFTLTIDPVEADDAATYYCQQNNEDPFTFGSGTKLEIKR
IC50 (M), MRC-5 bioassay (IL-8 production) [6]: 6e-10 M

B10: DVD1812LL (anti-IL12/IL18 DVD-Ig, 18-12-C, long linker) (bispecific antibody, human IgG1, kappa)
heavy: not shown
light: EIVMTQSPATLSVSPGERATLSCRASESISSNLAWYQQKPGQAPRLFIYTASTRATDIPARFSGSGSGTEFTLTISSLQSEDFAVYYCQQYNNWPSITFGQGTRLEIKRTVAAPSVFIFPPQSVLTQPPSVSGAPGQRVTISCSGSRSNIGSNTVKWYQQLPGTAPKLLIYYNDQRPSGVPDRFSGSKSGTSASLAITGLQAEDEADYYCQSYDRYTHPALLFGTGTKVTVLGTVAAPSVFIFPPSDEQLKSGTASVVCLLNNFYPREAKVQWKVDNALQSGNSQESVTEQDSKDSTYSLSSTLTLSKADYEKHKVYACEVTHQGLSSPVTKSFNRGEC
notes: also called DVD1812HC-LL / DVD1812LC-LL
Kd [7]: 0.162 nM | Kd [8]: 0.113 nM | Potency (IC50, M), KG-1 bioassay (IFN-γ production) [9]: 7.8e-11 M | Potency (IC50, M), IL-12-induced IFN-γ production by PHA blast cells [10]: 1.18e-10 M

B11: murine monoclonal antibody 6B12.4F6 (anti-hIL-1β) (antibody, V domains shown)
VH: EVQLQQSGPELVKTGTSVKISCKASGYSFTGYYMHWVRQSHGKSLEWIGYISCYNGFTSYNPKFKGKATFTVDTSSSTAYIQFSRLTSEDSAVYYCARSDYYGTNDYWGQGTTLTVSS
VL: QIVLTQSPAIMSASPGEKVTITCSASSSVSYMHWFQQKPGASPKLWIYSTSNLASGVPARFSGSGSGTSYSLTVSRMEAEDAATYYCQQRSTYPYTFGGGTKLEIKR
IC50 (M), MRC-5 bioassay (IL-8 production) [6]: 3.2e-10 M

B13: mouse anti-mouse IL-1β mAb clone 10G11 (antibody, V domains shown)
VH: EVQLQQSGPELVKPGTSVKMSCKTSGYTFTSYVMHWVKQKPGQGLEWIGYIIPYNDNTKYNEKFKGKATLTSDKSSSTAYMELSSLTSEDSAVYYCARRNEYYGSSFFDYWGQGTTLTVSS
VL: DIQMTQSPASLSASVGETVTITCRGSGILHNYLVWYQQKQGKSPQLLVYSAKILADGVPSRFSGSGSGTQYSLKINSLQPEDFGSYYCQHFWSTPFTFGSGTKLEIKR
IC50 (M), in vitro potency (assay not described) [12]: 3.7e-10 M

Continued, values first:

Potency (IC50) M, MRC-5 bioassay [2]: 0.75 nM | Kd [3]: 63.7 nM | Kd [4]: 0.837 nM
B3: hIL-1α/bDVD3a-Ig (bispecific antibody, human IgG1, kappa)
heavy: not shown
light: DIVMTQSQRFMSTSVGDRVSVTCKASQNVGTNIAWYQQKPGQSPRALIYSASYRYSGVPDRFTGSGSGTDFTLTISNVQSVDLAEYFCQQYTRYPLTFGGGTKLEIKRTVAAPETTVTQSPASLSMAIGEKVTIRCITSTDIDVDMNWYQQKPGEPPKLLISQGNTLRPGVPSRFSSSGSGTDFVFIIENMLSEDVADYYCLQSDNLPLTFGAGTKLELKRTVAAPSVFIFPPSDEQLKSGTASVVCLLNNFYPREAKVQWKVDNALQSGNSQESVTEQDSKDSTYSLSSTLTLSKADYEKHKVYACEVTHQGLSSPVTKSFNRGEC
notes: 18F4.2C8 - short linker - 1B12.4H4 - C (a-b-C); also called hIL-1a/b DVD3a-Ig

IC50 (M), MRC-5 bioassay (IL-8 production) [1]: 2.4e-10 M
B4: murine monoclonal antibody 6H3.1A4.3E11 (anti-hIL-1α) (antibody, V domains shown)
VH: QVQLQQPGAELVRPGASVKLSCKASGYTFTTYWMNWVKQRPEQGLEWIGRIDPYDSETLYSQKFKDTAILTVDKSSSTAYMQLSSLTSEDSAVYYCARYGFDYWGQGTTLTVSS
VL: QIVLTQSPALMSASPGEKVTMTCSASSSVNYMYWYQQKPRSSPKPWIYLTSNLASGVPARFSGSGSGTSYSLTISSMEAEDAATYYCQQWNSNPYTFGGGTKLEMKR

Potency (IC50) M, MRC-5 bioassay [5]: 70 nM | Potency (IC50) M, MRC-5 bioassay [2]: 2.3 nM | Kd [3]: 2.09 nM | Kd [4]: 1.06 nM
B5: hIL-1α/bDVD6a-Ig (bispecific antibody, human IgG1, kappa)
heavy: not shown
light: QIVLTQSPALMSASPGEKVTMTCSASSSVNYMYWYQQKPRSSPKPWIYLTSNLASGVPARFSGSGSGTSYSLTISSMEAEDAATYYCQQWNSNPYTFGGGTKLEMKRTVAAPSVFIFPPQIVLTQSPAIMSASPGEKVTITCSASSSVSYMHWFQQKPGASPKLWIYSTSNLASGVPARFSGSGSGTSYSLTVSRMEAEDAATYYCQQRSTYPYTFGGGTKLEIKRTVAAPSVFIFPPSDEQLKSGTASVVCLLNNFYPREAKVQWKVDNALQSGNSQESVTEQDSKDSTYSLSSTLTLSKADYEKHKVYACEVTHQGLSSPVTKSFNRGEC
notes: 6H3.1A4.3E11 - long linker - 6B12.4F6 - C (a-b-C); also called hIL-1a/b DVD6a-Ig

Potency (IC50) M, MRC-5 bioassay [5]: 0.75 nM | Potency (IC50) M, MRC-5 bioassay [2]: 1 nM | Kd [3]: 0.697 nM | Kd [4]: 0.82 nM
B7: hIL-1α/bDVD6b-Ig (bispecific antibody, human IgG1, kappa)
heavy: not shown
light: QIVLTQSPAIMSASPGEKVTITCSASSSVSYMHWFQQKPGASPKLWIYSTSNLASGVPARFSGSGSGTSYSLTVSRMEAEDAATYYCQQRSTYPYTFGGGTKLEIKRTVAAPSVFIFPPQIVLTQSPALMSASPGEKVTMTCSASSSVNYMYWYQQKPRSSPKPWIYLTSNLASGVPARFSGSGSGTSYSLTISSMEAEDAATYYCQQWNSNPYTFGGGTKLEMKRTVAAPSVFIFPPSDEQLKSGTASVVCLLNNFYPREAKVQWKVDNALQSGNSQESVTEQDSKDSTYSLSSTLTLSKADYEKHKVYACEVTHQGLSSPVTKSFNRGEC
notes: 6B12.4F6 - long linker - 6H3.1A4.3E11 - C (b-a-C); also called hIL-1a/b DVD6b-Ig

Kd [7]: 0.191 nM | Kd [8]: 1.82 nM | Potency (IC50, M), KG-1 bioassay (IFN-γ production) [9]: 4e-11 M | Potency (IC50, M), IL-12-induced IFN-γ production by PHA blast cells [10]: 3.66e-10 M
B8: DVD1812SL (anti-IL12/IL18 DVD-Ig, 18-12-C, short linker) (bispecific antibody, human IgG1, kappa)
heavy: not shown
light: EIVMTQSPATLSVSPGERATLSCRASESISSNLAWYQQKPGQAPRLFIYTASTRATDIPARFSGSGSGTEFTLTISSLQSEDFAVYYCQQYNNWPSITFGQGTRLEIKRTVAAPQSVLTQPPSVSGAPGQRVTISCSGSRSNIGSNTVKWYQQLPGTAPKLLIYYNDQRPSGVPDRFSGSKSGTSASLAITGLQAEDEADYYCQSYDRYTHPALLFGTGTKVTVLGTVAAPSVFIFPPSDEQLKSGTASVVCLLNNFYPREAKVQWKVDNALQSGNSQESVTEQDSKDSTYSLSSTLTLSKADYEKHKVYACEVTHQGLSSPVTKSFNRGEC
notes: also called DVD1812HC-SL / DVD1812LC-SL

IC50 (M), MRC-5 bioassay (IL-8 production) [6]: 5.3e-10 M
B9: murine monoclonal antibody 1B12.4H4 (anti-hIL-1β) (antibody, V domains shown)
VH: QVHLKESGPGLVAPSQSLSITCTVSGFSLTDYGVSWIRQPPGKGLEWLGLIWGGGDTYYNSPLKSRLSIRKDNSKSQVFLKMNSLQTDDTAVYYCAKQRTLWGYDLYGMDYWGQGTSVTVSS
VL: ETTVTQSPASLSMAIGEKVTIRCITSTDIDVDMNWYQQKPGEPPKLLISQGNTLRPGVPSRFSSSGSGTDFVFIIENMLSEDVADYYCLQSDNLPLTFGAGTKLELKR

IC50 (M), in vitro potency (assay not described) [11]: 2e-10 M
B12: mouse anti-mouse IL-1α mAb clone 9H10 (antibody, V domains shown)
VH: QVILKESGPGILQPSQTLSLTCSFSGFSLSTYGTAVNWIRQPSGKGLEWLAQIGSDDRKLYNPFLKSRITLSEDTSNSQVFLKITSVDTEDSATYYCANGVMEYWGLGTSVTVSS
VL: SIVMTQTPKFLLVSAGDRVTITCKASQSVNHDVAWYQQMPGQSPKLLIYFASNRYTGVPDRFTGSGYGTDFTFTISTVQAEDLAVYFCQQDYSSPYTFGGGTKLEIKR
